B1: unnamed (parent)
chain 1: MQQPTEHTTPMDSLAPPALVIKTPHQAFTAHAAQGPVVIGRDAPAQVRIPDERISRAHVRVTYTSTGWVAVDMSSNGTFVNGVQQATIPITDGLTIHLGHPLEGIAISFSYTIAPPLAVDDATEHIEDTSDPKMVRVGAEIAARREELGLPKRELDRRGVVGQATMTDIEKGRRFPRPFTRDKIEAVLGWPRGHIMWLYEQDIQPDEERTHVLTATTPVPEITGATKMALKGFTAAADSLPPEDDPAFTDRVGALLADLRELESVAASATHSAHGTSAAALVLSDVRKLYKALMLRAAGAPGATLGQRFYAARYRAELTTQDAAAAAGLPVAIIEAAEADAPLDPAATAAVQALLTSLLSQR
chain 2: MALPLGTVVAGYVIEGVLGSGGMGTVYLARHPTLPRSDALKILSAELSQDEQFRVRFIREADLAATLSHPNIVTVFNRGETDDGQLWIAMQYVEGTTASDLHATVLTPARVAAIITDVGAALDYAHSRRVLHRDIKPSNFLVSADHERVLLADFGIARAFDDTTLTAIGSLVGTASYAAPEAIQGGSVDQRADVYSLGCALFRLLTGRAPYEDLRGPAMLMAHVLQPIPRPSHIVVGLPPAIDDVIAVAMAKDPAARFPTAGALAGAARAALSGQPLPQAPPGGPKTRIWAAPPLSYPTTRPPGISGGAISPAGFAGAAHPGLAGAASSSDERGGPRAPRRRKR

In one assay the parent is B1. The assay can be described thus: ELISA. Conditions: with partner chain of the complex shown; read at the highest MupFHA concentration point, x about 2320 µM; parent: 1; read off a plot. (In general: ELISA stands for enzyme-linked immunosorbent assay.)
For chain 2 T174A, the response is 0.58 O.D. 490 nm.

As for chain 2 T260A, the response was determined as 1 O.D. 490 nm.

As to chain 2 S170A, the response worked out at 0.43 O.D. 490 nm.

Variants of B1 are the subject of another assay. The assay can be described thus: sandwich ELISA. Conditions: with partner chain of the complex shown; His6-PknQ adsorbed on a 96-well plate; equimolar amounts of GST-tagged substrates; parent: 2; read off a plot.
For chain 1 R41A, the response was 0.95 O.D. 490 nm.

In the case of chain 1 S55A, the response was 0.38 O.D. 490 nm.

Variants of B1 are the subject of another assay. The assay can be described thus: ELISA. The conditions noted are these: with partner chain of the complex shown; read at the highest MupFHA concentration point, x about 1160 µM; parent: 1.6; read off a plot.
With chain 2 K41M, the response worked out at 0.26 O.D. 490 nm.

Consider chain 2 T166A, for which the response was determined as 1.5 O.D. 490 nm.

chain 2 S170A: the response worked out at 0.21 O.D. 490 nm.

For the origin of these results see article PMC4238996 (PLoS Neglected Tropical Diseases, 2014).
